Positions count from the first letter of the chain named.
T1: FcγRIIa(H) (human, UniProt P12318 34-217)
T1 construct: extracellular domain; also called 2aH
T1 sequence: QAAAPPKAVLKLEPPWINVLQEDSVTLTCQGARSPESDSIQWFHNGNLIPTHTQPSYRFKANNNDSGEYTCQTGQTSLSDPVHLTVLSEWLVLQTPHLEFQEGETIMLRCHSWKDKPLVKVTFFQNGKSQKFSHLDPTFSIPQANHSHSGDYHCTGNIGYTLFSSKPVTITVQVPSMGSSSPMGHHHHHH

T2: FcγRIIa(R) (human, UniProt P12318 34-217)
T2 construct: extracellular domain; also called 2aR
T2 sequence: T1 sequence with H134R

T3: FcγRIIb (human, UniProt P31994 43-217)
T3 construct: extracellular domain; also called 2b
T3 sequence: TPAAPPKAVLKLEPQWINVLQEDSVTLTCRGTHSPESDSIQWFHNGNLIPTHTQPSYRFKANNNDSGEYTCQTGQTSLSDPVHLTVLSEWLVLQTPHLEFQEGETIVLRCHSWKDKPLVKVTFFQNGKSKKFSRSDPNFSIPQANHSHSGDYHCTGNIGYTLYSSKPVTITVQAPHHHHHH

T4: FcγRIIb extracellular domain, His-tagged (human, UniProt P31994 43-217)
T4 construct: extracellular domain; also called 2b
T4 sequence: T3 sequence

T5: FcγRIIa(R) extracellular domain, His-tagged (human, UniProt P12318 34-217)
T5 construct: extracellular domain; also called 2aR
T5 sequence: T1 sequence with H134R

T6: FcγRIIa(H) extracellular domain, His-tagged (human, UniProt P12318 34-217)
T6 construct: extracellular domain; also called 2aH
T6 sequence: T1 sequence

B1: GpH7-A5/GpH7-B3 variant S324_14T/GpL16-k0 (antibody, human IgG1, kappa)
heavy 1: not shown
heavy 2: not shown
light: DIVMTQSPLSLPVTPGEPASISCQASESLVHSNRNTYLHWYLQKPGQSPQLLIYKVSNRFSGVPDRFSGSGSGTDFTLKISRVEAEDVGVYYCSQNTHVPPTFGQGTKVEIERTVAAPSVFIFPPSDEQLKSGTASVVCLLNNFYPREAKVQWKVDNALQSGNSQESVTEQDSKDSTYSLSSTLTLSKADYEKHKVYACEVTHQGLSSPVTKSFNRGEC
notes: He Ab: heterodimerized IgG1, one H chain mutated
B2: GpH7-A5/GpH7-B3 variant A327_18N/GpL16-k0 (antibody, human IgG1, kappa)
heavy 1: not shown
heavy 2: not shown
light: B1 light
notes: as for B1
B3: GpH7-A5/GpH7-B3 variant A327_09D/GpL16-k0 (antibody, human IgG1, kappa)
heavy 1: not shown
heavy 2: not shown
light: B1 light
notes: as for B1
B4: GpH7-A5/GpH7-B3 variant A327_13S/GpL16-k0 (antibody, human IgG1, kappa)
heavy 1: not shown
heavy 2: not shown
light: B1 light
notes: as for B1
B5: GpH7-A5/GpH7-B3 variant A327_20W/GpL16-k0 (antibody, human IgG1, kappa)
heavy 1: not shown
heavy 2: not shown
light: B1 light
notes: as for B1
B6: GpH7-A5/GpH7-B3 variant A327_19Q/GpL16-k0 (antibody, human IgG1, kappa)
heavy 1: not shown
heavy 2: not shown
light: B1 light
notes: as for B1
B7: GpH7-A5/GpH7-B3 variant A327_05P/GpL16-k0 (antibody, human IgG1, kappa)
heavy 1: not shown
heavy 2: not shown
light: B1 light
notes: as for B1
B8: GpH7-A5/GpH7-B3 variant A330_01G/GpL16-k0 (antibody, human IgG1, kappa)
heavy 1: not shown
heavy 2: not shown
light: B1 light
notes: as for B1
B9: GpH7-A5/GpH7-B3 variant A330_03V/GpL16-k0 (antibody, human IgG1, kappa)
heavy 1: not shown
heavy 2: not shown
light: B1 light
notes: as for B1
B10: GpH7-A5/GpH7-B3 variant A330_04F/GpL16-k0 (antibody, human IgG1, kappa)
heavy 1: not shown
heavy 2: not shown
light: B1 light
notes: as for B1
B11: GpH7-A5/GpH7-B3 variant A330_07I/GpL16-k0 (antibody, human IgG1, kappa)
heavy 1: not shown
heavy 2: not shown
light: B1 light
notes: as for B1
B12: GpH7-A5/GpH7-B3 variant A327_06M/GpL16-k0 (antibody, human IgG1, kappa)
heavy 1: not shown
heavy 2: not shown
light: B1 light
notes: as for B1
B13: GpH7-A5/GpH7-B3 variant A327_10E/GpL16-k0 (antibody, human IgG1, kappa)
heavy 1: not shown
heavy 2: not shown
light: B1 light
notes: as for B1
B14: GpH7-A5/GpH7-B3 variant A330_08L/GpL16-k0 (antibody, human IgG1, kappa)
heavy 1: not shown
heavy 2: not shown
light: B1 light
notes: as for B1
B15: GpH7-A5/GpH7-B3 variant S239_07I/GpL16-k0 (antibody, human IgG1, kappa)
heavy 1: not shown
heavy 2: not shown
light: B1 light
B16: GpH7-A5/GpH7-B3 variant S239_09D/GpL16-k0 (antibody, human IgG1, kappa)
heavy 1: not shown
heavy 2: not shown
light: B1 light
B17: GpH7-A5/GpH7-B3 variant S239_08L/GpL16-k0 (antibody, human IgG1, kappa)
heavy 1: not shown
heavy 2: not shown
light: B1 light
B18: GpH7-A5/GpH7-B3 variant S267_10E/GpL16-k0 (antibody, human IgG1, kappa)
heavy 1: not shown
heavy 2: not shown
light: B1 light
B19: GpH7-A5/GpH7-B3 variant V266_07I/GpL16-k0 (antibody, human IgG1, kappa)
heavy 1: not shown
heavy 2: not shown
light: B1 light
B20: GpH7-A5/GpH7-B3 variant V266_06M/GpL16-k0 (antibody, human IgG1, kappa)
heavy 1: not shown
heavy 2: not shown
light: B1 light
B21: GpH7-A5/GpH7-B3 variant V266_02A/GpL16-k0 (antibody, human IgG1, kappa)
heavy 1: not shown
heavy 2: not shown
light: B1 light
B22: GpH7-A5/GpH7-B3 variant S267_02A/GpL16-k0 (antibody, human IgG1, kappa)
heavy 1: not shown
heavy 2: not shown
light: B1 light
B23: GpH7-A5/GpH7-B3 variant S267_01G/GpL16-k0 (antibody, human IgG1, kappa)
heavy 1: not shown
heavy 2: not shown
light: B1 light
B24: GpH7-A5/GpH7-B3 variant V266_08L/GpL16-k0 (antibody, human IgG1, kappa)
heavy 1: not shown
heavy 2: not shown
light: B1 light
B25: GpH7-A5/GpH7-B3 variant S267_19Q/GpL16-k0 (antibody, human IgG1, kappa)
heavy 1: not shown
heavy 2: not shown
light: B1 light
B26: GpH7-A5/GpH7-B3 variant S267_09D/GpL16-k0 (antibody, human IgG1, kappa)
heavy 1: not shown
heavy 2: not shown
light: B1 light
B27: GpH7-A5/GpH7-B3 variant S239_10E/GpL16-k0 (antibody, human IgG1, kappa)
heavy 1: not shown
heavy 2: not shown
light: B1 light
B28: GpH7-A5/GpH7-B3 variant S239_18N/GpL16-k0 (antibody, human IgG1, kappa)
heavy 1: not shown
heavy 2: not shown
light: B1 light
B29: GpH7-A5/GpH7-B3 variant S239_14T/GpL16-k0 (antibody, human IgG1, kappa)
heavy 1: not shown
heavy 2: not shown
light: B1 light
B30: GpH7-A5/GpH7-B3 variant S239_19Q/GpL16-k0 (antibody, human IgG1, kappa)
heavy 1: not shown
heavy 2: not shown
light: B1 light

Molecular target: T1, FcγRIIa(H)
Assay: SPR, relative to GpH7-A5/GpH7-B3/GpL16-k0 =100

Binder | He/Con 2aH [%]
B1 | 107
B2 | 79
B3 | 124
B4 | 84.4
B5 | 76.6
B6 | 79.6
B7 | 67.9
B8 | 107
B9 | 86.1
B10 | 104
B11 | 94.4
B12 | 89.3
B13 | 108
B14 | 94.7

Molecular target: T7, FcγRIa (human, UniProt P12314 16-292)
T7 construct: extracellular domain; also called 1a
T7 sequence (P12314 other isoform, or with tags, fused parts or gaps): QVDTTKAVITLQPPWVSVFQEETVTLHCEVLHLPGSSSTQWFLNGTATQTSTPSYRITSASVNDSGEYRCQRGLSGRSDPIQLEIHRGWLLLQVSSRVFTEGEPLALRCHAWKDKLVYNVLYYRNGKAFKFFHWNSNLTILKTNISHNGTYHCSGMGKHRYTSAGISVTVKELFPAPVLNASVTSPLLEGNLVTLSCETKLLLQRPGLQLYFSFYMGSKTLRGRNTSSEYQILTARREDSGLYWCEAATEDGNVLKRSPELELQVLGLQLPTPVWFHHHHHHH
Assay: SPR, relative to GpH7-A5/GpH7-B3/GpL16-k0 =100

Binder | He/Con 1a [%]
B1 | 114
B2 | 100
B3 | 105
B4 | 105
B5 | 100
B6 | 98.5
B7 | 102
B8 | 109
B9 | 109
B10 | 110
B11 | 109
B12 | 106
B13 | 106
B14 | 110

Molecular target: T2, FcγRIIa(R)
Assay: SPR, relative to GpH7-A5/GpH7-B3/GpL16-k0 =100

Binder | He/Con 2aR [%]
B1 | 93.9
B2 | 114
B3 | 159
B4 | 98.6
B5 | 95.9
B6 | 77.7
B7 | 80.6
B8 | 122
B9 | 84
B10 | 112
B11 | 96
B12 | 80
B13 | 142
B14 | 99.7

Molecular target: T3, FcγRIIb
Assay: SPR, relative to GpH7-A5/GpH7-B3/GpL16-k0 =100

Binder | He/Con 2b [%]
B1 | 115
B2 | 141
B3 | 214
B4 | 99
B5 | 98.2
B6 | 67.5
B7 | 86.3
B8 | 117
B9 | 59.2
B10 | 105
B11 | 75.8
B12 | 74.1
B13 | 175
B14 | 79.6

Molecular target: T8, FcγRIIIa extracellular domain, His-tagged (human, UniProt P08637 17-208)
T8 construct: extracellular domain; also called 3a
T8 sequence (P08637 other isoform, or with tags, fused parts or gaps): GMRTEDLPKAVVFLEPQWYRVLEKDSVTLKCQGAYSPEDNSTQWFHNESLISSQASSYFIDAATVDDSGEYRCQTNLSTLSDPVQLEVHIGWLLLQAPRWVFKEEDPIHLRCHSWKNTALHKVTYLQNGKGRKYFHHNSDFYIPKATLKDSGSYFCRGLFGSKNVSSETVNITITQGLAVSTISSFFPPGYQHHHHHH
Assay: SPR, vs GpH7-A5/GpH7-B3/GpL16-k0 =100

Binder | He/Con 3a
B15 | 75 % of control
B16 | 156 % of control
B17 | 90 % of control
B18 | 90.9 % of control
B19 | 113 % of control
B20 | 84.9 % of control
B21 | 56.8 % of control
B22 | 149 % of control
B23 | 53.3 % of control
B24 | 117 % of control
B25 | 64.3 % of control
B26 | 179 % of control
B27 | 171 % of control
B28 | 104 % of control
B29 | 93 % of control
B30 | 53.8 % of control

Molecular target: T4, FcγRIIb extracellular domain, His-tagged
Assay: SPR, vs GpH7-A5/GpH7-B3/GpL16-k0 =100

Binder | He/Con 2b
B15 | 108 % of control
B16 | 209 % of control
B17 | 142 % of control
B18 | 398 % of control
B19 | 160 % of control
B20 | 264 % of control
B21 | 85.1 % of control
B22 | 256 % of control
B23 | 110 % of control
B24 | 248 % of control
B25 | 228 % of control
B26 | 326 % of control
B27 | 183 % of control
B28 | 121 % of control
B29 | 98.6 % of control
B30 | 87.3 % of control

Molecular target: T9, FcγRIa extracellular domain, His-tagged (human, UniProt P12314 16-292)
T9 construct: extracellular domain; also called 1a
T9 sequence (P12314 other isoform, or with tags, fused parts or gaps): as the sequence (P12314 other isoform, or with tags, fused parts or gaps) above
Assay: SPR, vs GpH7-A5/GpH7-B3/GpL16-k0 =100

Binder | He/Con 1a
B15 | 101 % of control
B16 | 104 % of control
B17 | 103 % of control
B18 | 102 % of control
B19 | 96.1 % of control
B20 | 96.5 % of control
B21 | 93.8 % of control
B22 | 105 % of control
B23 | 99.9 % of control
B24 | 94.9 % of control
B25 | 99.2 % of control
B26 | 106 % of control
B27 | 108 % of control
B28 | 104 % of control
B29 | 104 % of control
B30 | 104 % of control

Molecular target: T5, FcγRIIa(R) extracellular domain, …
Assay: SPR, vs GpH7-A5/GpH7-B3/GpL16-k0 =100

Binder | He/Con 2aR
B15 | 95.9 % of control
B16 | 129 % of control
B17 | 114 % of control
B18 | 188 % of control
B19 | 129 % of control
B20 | 161 % of control
B21 | 88.8 % of control
B22 | 167 % of control
B23 | 121 % of control
B24 | 152 % of control
B25 | 145 % of control
B26 | 186 % of control
B27 | 127 % of control
B28 | 104 % of control
B29 | 97.4 % of control
B30 | 79.8 % of control

Molecular target: T6, FcγRIIa(H) extracellular domain, …
Assay: SPR, vs GpH7-A5/GpH7-B3/GpL16-k0 =100

Binder | He/Con 2aH
B15 | 88.5 % of control
B16 | 111 % of control
B17 | 101 % of control
B18 | 103 % of control
B19 | 107 % of control
B20 | 84.8 % of control
B21 | 69.7 % of control
B22 | 121 % of control
B23 | 72.1 % of control
B24 | 106 % of control
B25 | 61.9 % of control
B26 | 107 % of control
B27 | 108 % of control
B28 | 91.1 % of control
B29 | 95.9 % of control
B30 | 80 % of control

From patent publication US20260167699A1 (Chugai, published 2026)
